Experimental data taken from paper doi:10.1101/2025.11.04.686334 (2025).

Assays:
Experiment in all cases: BLI
HA220-4 = molecular target: HA220-4
HA220-M4T = molecular target: HA220-M4T
HA220-1 = HA220-1 (human, UniProt Q9NZ52 16-146)

Binder | Kd (HA220-4) [nM] | Kd (HA220-M4T) [nM] | koff (HA220-M4T) [s⁻¹] | Kd (HA220-1) [nM]
D2 H1-1/H3-1 mAb (antibody, V domains shown) VH: QVQLVQSGGGLVRPGGSLRLSCAASGFTFSSAWMTWVRQAPGKGLEWVANIKEDGSEKYYVDSVKGRFSISRDNAKNSLYLQISSLRAEDTAVYYCARRFVERLWGQSKPYDAVDIWGQGTMVTVSG VL: DIQMTQSPSSLSASVGDRVTITCRASQSISNYLNWYQQKPGKAPKLLIYVASNLQSGVPSRFSGSGSGTDFALTISSLQPEDFASYYCQQSYSPVTTFGGGTKVEIK | 65 | 2.55 | 0.00017 | –
S1V2-58 mAb (antibody, V domains shown) VH: QVQLQESGPGLVKPSETLSLTCTVSGGSLSIYYWSWVRQSPGKGLEWIGYISNSGSPTYHPSLKSRVTISLDTSKSQFSLKLTSVTAADTALYFCARGVLEQLAPDFDSYYYGMNVWGQGTTVTVSG VL: DIQMTQSPSSVSASLGDRVTLTCRASQPIRSYLNWYQHKPGLAPKLLVYAVSNLQSGVPSRFSGSGSGTDFTLTVSSLQPEDFATYYCQQSYSTPYTFGQGTRLEIK | 178 | 10.7 | 0.00043 | –
FluA-20 mAb (antibody, V domains shown) VH: QVQLEESGPGLVKPSETLSLTCSVSGVSVTSDIYYWTWIRQPPGKGLEWIGYIFYNGDTNYNPSLKSRVTMSIDTSKNEFSLRLTSVTAADTAVYFCARGTEDLGYCSSGSCPNHWGQGTLVTVSS VL: DIVMTQSPSSLSASIGDRVTITCRPSQNIRSFLNWFQHKPGKAPKLLIYAASNLQSGVPSRFSGSGSGTEFTLTIRSLQPEDFATYYCQQSYNTPPTFGQGTKVEIK | 110 | 0.253 | – | > 12000
